Data from the domain aggregation screens of Martell et al. (2025).

Experiment: soluble fraction after stress (log2 fold change); higher = more stays soluble; pooled small domains, quantitative proteomics
Details: stress: 75 degC
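Further: 20 min heating vs room temperature control held 20 min.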

Row | Sequence | soluble fraction (log2)
1 | HMPNYIDAISALLTLKGVGDRKHASTMANILNLQYNSAKQKLDGKRGITLDEVKKVFQYFNEPF | -1.44
2 | HMPPAPGHDLTEREREVLRLLVEGLSNQEISDRLVISQSTVKNHVSSVLSKLDAANRAEAVALALKNQL | 0.0595
3 | HMPPELSDEVMEEAMSYLKNQYLNHGVKLEDYPALNKLFVDEAFRSEVIRKTQSNYKISYQSAMASLD | 0.355
4 | HMPPENVSVRREQIAEDKKTVYNVWVTKGNKTVLYSKVVYAWGGVYFFRDLNTSISENMYKQADAGLVN | 0.00373
5 | HMPPGQIVNEALQRAGNSTPTGTAISAQDDIKLYTSALAELATQGDTSSASVAKLREALQTAQVAFYNAV | 0.201
6 | HMPPITIVPNDNGVPIIRSQTPEISTAVNVELKAAGINTHTIDGTSIRVPKAQAQVAQQIVSRVNTRFT | 0.151
7 | HMPPNHADLKSSGLKATLPRLKILEIFQNSQVRHLSAEDVYKLLLAENLDVGLATVYRVLTQFEQAGL | -0.522
8 | HMPPNRDDEHLQALRDYYAANRRIPSLQRVASLLGFSSRSAAVKLMGRLADEGFIERTADDDAWITGKRFF | -1.34
9 | HMPPNVLSEREQEVLQLAADGMSNKEMGSELYIAPTTVRDHMQSIMRKLQVNSRTAAAVAGLKLGLLD | -0.452
10 | HMPPPTLVESAYNHLKADIISSYLKPDEKINLKDLSQRYQVSETPIKQALNRLISEGLIISVPRKGMWVH | 0.0697
11 | HMPPPVERAIRKLGHDLSLARRRRRISQDSMAQRMGASVSTVRRIEKGDPRIPIHFIARAMMILGDLKAL | 0.0447
12 | HMPQFDRQAFGQRLRLLRDYREMTQQQVANFLNVDRSTYSYYENGKTEPSITVLMRMAELFSVTLDSLLNM | -3.92
13 | HMPQIDLYPFEVRIEQDNNAAEYAVRFLDVPNIIGSGASIDEAIVEARGNLKEYLDYLIDTNRDIPLPS | -0.339
14 | HMPQISQDDLMEAGLIVGKEAKQRRIKLGEILGIGYVNAKQLPKRLQLFQVAKSDFEQAVQQIDG | -0.218
15 | HMPQKSDLTMEEYNKLGLAGGSGSRKLREQVGIRLSVGYGNSKQFYNRLHTFGISLDELKTAVEEVKNG | 0.226
16 | HMPQNVSVPDVTNMTQAEAESKLKEKNLAVGNIIPELSTTVEKDKVTRTNPESGSNVRKNSKVDIYVSQG | 0.154
17 | HMPQPDVIEVRQGIVTGMRPDRRTGWLRDEEDAAGEPKSFSIDVITPKGRTPGKGAVVTYTLTNGKITEVK | -0.047
18 | HMPRELKVRDVSHQHAGHAGWREGGETHFEVDMKADVFAGTSRVAAHRMVNKVLANELASRVHALQLNLS | 0.0164
19 | HMPRENLAYTLIMDGIVQHKNLPRASVTEAWLKQELQKAGINDFRQVLIAGIDSKGQLYFQPKQK | ≥ 1.04
20 | HMPRPLVAPMPGLIVRVTAVVGDSVDAGQGLVVMEAMKMENELRTTTAGVVKTVHVQPGVAVEKGALLIEF | -0.827
21 | HMPRTEILMVDEEMEGERLDAFVAEQLDELSRSLVKTLIENGEIRVDGKQQKPSYRLKAGEEIIVEIPA | 0.439
22 | HMPSDTNLIGKTGIAYTTLRPGGTALIDDRKVDVVADSEYIEKDKKIKVIRVEGIKVVVTAVK | 0.164
23 | HMPSGRIRWFDAKKGYGFIAGDDGKDVFLPQTALPQGVRNPRKGAKVEYSVIEGNRGQVAMGVTMV | -0.331
24 | HMPSHALFWTLLKEVPGYDPHYKDVIKEGIVHEHSGGRTTSLSEMYTKYPREYSLMIEAMKG | -0.475
25 | HMPSKTFYNLSQEKQQKIIDASEKEFSNNLYQDVSLNQIIKNSNISRGSFYMYFTDKEDLYFYLLNEY | -0.731
26 | HMPSLGADIRALRKSRKMTLVALADALGRSVGWLSQVERDKSHATIADLGRMAEVLDVSISSFL | -0.273

Row | Sequence | soluble fraction (log2)
27 | HMPSLSAILHDARVAAGLSMRQASAASGLSIGFISMLEQGKVQDISLQRLGRLVTAYDLEPLDVIEAAG | -1.83
28 | HMPSSAYGPYKNVFLSNSELTKLKNELPTSWEHYINRLSEYMRSTGRQYQSHAATILRWAATDRNS | -0.488
29 | HMPSSFLVKVTADALNIRSGPGVANRITGTIKDKGTYTIVDTKDDWGKLKSGVGWIHLGYTKRLD | -0.857
30 | HMPSSQQVMRRLATVGPDKTLEELQRQHDAHLRKYGEFNDFRGERQQMRQEMERIKEAKQGTGPYAHLMG | 0.025
31 | HMPTAGYMTVTPDRVKEGQQFLATLRPPYVLKADGLAAGKGVLILPELEEAQRELEEMLGGFLGELSVNR | 0.136
32 | HMPTERLSMRRIRELLRLRFEVGLSTRLIATALGISKGAVGDYLQRAQVAGLGWPLPENLNDAALERRLFP | -1.38
33 | HMPTGRVVIPLNRLTASDVARILDEAYGRDHNFEVVKPSRLAKGIIVIGPKSEIDGIKELLAH | -0.829
34 | HMPTLLGYKHILSAWNPDTNTVFRTSYGYDGEYGSREEAMQALIKMIQEGGKATPRGIEESEVPIY | -0.238
35 | HMPTLSKVGSQGEEVRQIQTKLKNWGYLNDRVDGIYGPKTRDAVIWFQKKNGLVADGIAGPATLKAMGIFT | -0.142
36 | HMPTMVAQINEIVQAKLPGSGLKDYTIRLVESQRDGVVVWVNGTRYLGVDEVAEPQVQALLKEAVAEWERS | -0.462
37 | HMPTQGELAILRVLWEQGPSTVRAVWEKLNSQSGTGYTTALKLMQIMAQKGLVSRDESQKTHVYRA | -1.54
38 | HMPTTRPEAEAHYETHQRYHDLQIDVEGREAFKVATGSLTLVQEFDEKDDYDLSIPTPRSPAILLTT | -0.0329
39 | HMPVFYVTGNRVNFRAGPSTGDRVIGSLSQGAAVEVLGPTDDAWINIRDSDGRVGYMSAQFLSQ | 0.355
40 | HMPVLDETVPAALDGERIDRVVALLADVSRNRAGIAIAAGSVRLDGAVVTQRSRKVRADEELVVDGLER | 0.107
41 | HMPVNEEFKRLIDKIKYEFSINQAQISERLGVKSTYLSDMINGRVPYNESMQKKIHEVFHIG | -0.424
42 | HMPVNGEFIERIKVMVLENKAKGKKERLTKTRMHQLLQEEGYKGSYSAFTHQVRIIEEELGVNQKEAH | -0.48
43 | HMPVSRMRARHEALARGVMGIHAGGFSAVYGYRKVWHGLIGKGWDPGEVGRDQVMNIMRGLGMQGVRR | -0.132
44 | HMPVSVAEQKQILAEALQERGHATFRELIENADNRMIVVGRFLALLELYRDGTVRFEQERALGELTIHWEE | -2.07
45 | HMPYIVNHIHLKSEDPKITADWFVKAFNFEIVSDVVRHFGDRFIVTKAEGGMTINISGVRDGEEL | 0.141
46 | HMPYNNLADAPASWKKLDDTPLTLGQVNWIAKIYDALVAKGMEKGAAAGTAISRFKKSFKVADGKWVQV | -0.478
47 | HMPYNRRYLISNADGALYTVEENGLVKLEETNLTAELFETRGMQDIPDGKLLITLHDPTILYWHDSENLFP | -1.5
48 | HMPYSPTPGSAPARLIAHLQEHGDSVNRTAIAELLQVDRKNVHNYLARAVTHGLLLRHGGGAYSLP | 0.0908
49 | HMQADEENPKYPVITDGVIQLEVLESIDKTEEWLVERLAKDGYNNVSEIFIAEYENGNLSIVT | 0.0913
50 | HMQADPYTVLGVLRDVTDGELKREYRKLVREHHPDALIAQGVPQEFVDIANNKLAVINAAYERIAKQRGL | -0.154
51 | HMQAGILTDTAAKNARIKKIDTERLEAELDQKRIVIVTGFQGVDRNQNITTLGRGGSDTSAVALAAAVSIT | 0.171
52 | HMQAKDVEIPNFVGKTLAEANADNKDNFNFVVESKYDASKELGVILEQEPAADSKLVKSGSQITLKV | ≥ 1.04

Row | Sequence | soluble fraction (log2)
53 | HMQALDNNDALEEIIKKVITENPSQVTEFRNGKDSLMNFLVGKVMAASGGKANPKTLPETIEKIIK | 0.277
54 | HMQAMDYEGFKKEILKMSDIDLSLYKEKQMKRRIDSLIRKNGYEHYEDYVQALKQDSGLYNEFINYLTI | 0.571
55 | HMQANLPFSELLADVDRGLISDVTIKGDQVSGHYTDGRTFNTFIPPEADLVRRLTEKNVRIAAVPD | -0.113
56 | HMQAPAFDYSKVQEGVTVNHKIFGDGTVSWIDKARKYIRVQFSVGEKMFTMETAFVQGFLSL | -1.19
57 | HMQAPVDPIVLGKMGSSYGIRGWLRVFSSTEDAESIFDYQPWFIQKAGQWQQVQLESWKHHNQDMIIKLN | 0.2
58 | HMQARLPFSFAKRHGVILLAATGEGQSDVIYKSGFDIGALAEVRRFVAGEIALKEVDGPSFDRQLTLTYQN | -2
59 | HMQARSQQTIQTLFKAAAQILDKEGEAGLSTNKVAAAAGFSIGTLYQYFPSKEVLIQAMAAR | 0.219
60 | HMQASISVDEAKSIALNYAKFTADQVVYTKSELDYDDGRAEYEIEFYAGGKEYSFTIDAVSGTVLEMEI | -2.26
61 | HMQATDEEIENFTSSAITAYKLTKEEGYIISMRDMKPIMEIVKTEYPMANGKVVSKVMNNYING | 0.0264
62 | HMQDELSSSVIEEAVVVLLLRAANIDGKKDEQEIEAIKRLIIQQFNYDEEKADILITSASEK | 0.0178
63 | HMQDGTILPGQKTAIRSLATSGGYDSQDLDTYLATTYGKSIDGLTRTEGADVIKAFQAGTVAK | 0.436
64 | HMQDLEIKINLGMTYYEVREAIGSPDIIDKINQYGRDFQMWTYYIDDKTKRYYFEDHLLTKI | -2.84
65 | HMQDLPPIHLSRGMTDYTLVRSRRRTLSMELKRDGTVVVHAPLRLGVEKIDAFVAAHEAWLARARTRQAER | -2.59
66 | HMQDNPELVARIEKAAARGTSSMSDWERSFMGSLLDSAKKWGRLTAKQHEVFQRIEKKTDPAHQAAVS | 0.111
67 | HMQDPRITRTRGLILQAFDALLVEKGFHALSVQAIAGRAGINRATFYAHFADKYALLDTSIQE | 0.227
68 | HMQDREKNIAEGRDIIEHEFMRLGISLSRYDLDGLASKLNVKAGDDVLAGVGAGDIRVSQIISQLG | -0.0551
69 | HMQDTVKNVFGAFTIFTDKPFAIGDTINVNGLEGTVVDVGMRSTQILGYDRRITSYPNYKITDSSIVNISS | -0.0554
70 | HMQDVVFTVDKDQTGAEIGDMLYEKGIISSPTTFRLALRLTGSMDKLQQGYYQIPQNASLRQVIALLQKG | -0.35
71 | HMQDYYTQSDFARYLEDKGIHFPQNKIAVYRKRGKFPKEDLVVAGTPYWSKYTVESFAKHLLEQQN | 0.254
72 | HMQEAATSLNAKILAKLRENNGTLAVSDKSDPALISSLFGVSKGNFKKAIGALYKNGQIVIHADRIEL | -0.813
73 | HMQEDQKTSIFDIEGVEKGVASVLSSIKVEIVSDLLEADMDDILKSGKISEDDLDGVYEAVQNFVER | 0.41
74 | HMQELNDQQRLAILNEWNNRATNPPSLLELVRVAFPDAEGADGRSWHGKKVKEFLSTRQIKARAS | 0.0119
75 | HMQENFYMILESEERRVLDVLVADQPESVATFLKLVSPFPNYKIILEHINEKALDFYEETVI | -0.35
76 | HMQESTILPAQKSAISSLATSAGFSSENLKRYLLQNYGVDLKDLTRSQGAEVIKAFQSGNVSKP | 0.281
77 | HMQETPAMLAMKELPTEDEQRIYMMLQEDYDSVLLVKTIRNAFSQNPQLTRQQLLPIILTWLMT | -1.33
